Source: the supplement of paper PMC9170038

Test system: MS2 coat protein
Experiment: apparent KD of MS2 coat protein; designed switch direction (-1 OFF switch, 1 ON switch): -1; higher = weaker reporter binding
In short: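 An oligonucleotide input, 200 uM small-molecule ligand, or no input was present during titration of SNAP-549-labelled MS2 coat protein, which was doubled from 0.7 or 1.5 nM to 3 µM. Designed RNA switches had been transcribed on Illumina chips by stalled E. coli RNA polymerase. Apparent KD per design is the median over clusters of curves fitted to normalised cluster fluorescence.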

[1] = Eterna round: R95, input ligand: FMN 200 uM
[2] = Eterna round: R95, input ligand: microRNA oligo, concentration not stated
[3] = Eterna round: R95, input ligand: none
[4] = input ligand: microRNA oligo, concentration not stated

Row | Sequence | apparent KD of MS2 coat protein [1] | apparent KD of MS2 coat protein [2] | apparent KD of MS2 coat protein [3] | apparent KD of MS2 coat protein (input ligand: FMN 200 uM) | apparent KD of MS2 coat protein (input ligand: none) | apparent KD of MS2 coat protein [4]
1 | GGGCAGUCAGGAUAUACAUGAGGAUCACCCAUGUUGAGAUGUGAAAGGGCGGGAGUAGGUAGAAGGGACGAGAG [JR_Exclu3_Sub041] (puzzle: Exclusion 3) | 27.4 nM | 22.8 nM | 29.9 nM |  |  | 
2 | UAUUAGCAAGCGAGAUCCCACAUGAGGAUCACCCAUGUGCUCGUGCAUCCAGAAUUACUGGGUGCAGCUCGUCUUAU [Winner reversed engineered 12] (Eterna round: R97, puzzle: Sensor, turn-off variant 1) |  |  |  | 14.9 nM | 14.7 nM | 
3 | GCUGGUCGAGGAUAUACAUGAGGAUCACCCAUGUUGAUCAACUGCCGAUAGGCAGAAUGUAGAAGGCGACCAGC [E3/7-A1] (Eterna round: R97, puzzle: Exclusion 3) |  |  |  | 137 nM | 1110 nM | 
4 | AAAAUAAAGGCAGGAUAUCGGAGGCGCUGGCACCGAGAAGGGCCAGGGUGUCGUCAAAACAUGAGGAUCACCCAUGUGAGUGAC [Maanated] (Eterna round: R96, puzzle: Exclusion NG 1) |  |  |  | 17.6 nM | 23 nM | 12.7 nM
5 | GCGAAAGCAAGCAAGUGAAACAUGAGGAUCACCCAUGUCCUCAUUUGCUCGUCUUAUAAGCUAUGCGAAAGCAUAGC [Sensor 3, v1 - 2] (puzzle: Sensor v3, turn-off variant 1) | 13.9 nM | 220 nM | 10.5 nM |  |  | 
6 | UGUUGUUGCGCAGGAUAUUGCCAACAGGCAGUAGGAUAUCCGAAAGGAGAAGGACCGCCAACAGGCGAGAAGGGCGGGACAACU [pwkr exNG2 2xF7 2xFMN.12] (Eterna round: R96, puzzle: Exclusion NG 2) |  |  |  | 93.9 nM | 64.3 nM | 44.5 nM
7 | GCAAGCUUAAUCUGUAUGAACAUGAGGAUCACCCAUGUAUAAGGGAAUUCUUUUGGGUUUUUUAUUGCUCGUCUUAU [JR_STOV1_Sub024] (Eterna round: R97, puzzle: Sensor, turn-off variant 1) |  |  |  | 260 nM | 329 nM | 
8 | AAGAAACAUGAGGAUCACCCAUGUGAGGAUAUGAAAAAUAAAAGAAAAGAAAGAAUAAUCAGAAGGCACAAAGG [Mat - Mod of Hog D10] (puzzle: Exclusion 1) | 51.4 nM | 37.3 nM | 41.4 nM |  |  | 
9 | CCUAGCCUAAAAUCACGCAAGCUUUUUGCUUGUCUUAAGACAUGAGGAUCACCCAUGUCCGGGCUGAACUUAUGGAA [Veorxe] (puzzle: Sensor v3, turn-off variant 2) | 17.8 nM | 23.2 nM | 16.6 nM |  |  | 
10 | UUUUUUGUAGUGAGGAUAUCGUUGAGGAUGUGGAUCGAGAAGGCACAUGAGGAUCACCCAUGUUAGAUGUGGUU [JR_BMOE4_Sub083] (Eterna round: R96, puzzle: Brourd's mod of Exclusion 4) |  |  |  | 363 nM | 166 nM | 134 nM
11 | AGUACUAACUCGAUAGUGUUAGUACAAUAAGCUUGUGAAACAUGAGGAUCACCCAUGUCCUCAUAAGCUCGUCUUAU [salish99_TOv2_r3_1004] (puzzle: Sensor v3, turn-off variant 2) | 16.9 nM | 726 nM | 15.4 nM |  |  | 
12 | GGUGAGCGAGGAUAUACAUGAGGAUCACCCAUGUGAGAGAAAUAAGUGAGGAAGAAAAGUAGAAGGCGCGAACG [Mat - Exclusion 3 - Mod of Salish D46] (puzzle: Exclusion 3) | 114 nM | 25.3 nM | 29.3 nM |  |  | 
13 | CCAUUCAGAGGAUAUGCGAAUAAAUAAAACUUUUUUUUUUAACAUGAGGAUCACCCAUGUAGAAGGCUGUAACC [Ex2 #44] (Eterna round: R97, puzzle: Exclusion 2) |  |  |  | 31.4 nM | 27.6 nM | 
14 | CUUAGUUGGUAAGGAUAUCCUACAUUAUUCUGACCCGUGCAAGCUACAUGAGGAUCACCCAUGUGGGAGAAGGUGCGUUAACGU [Design 7] (Eterna round: R96, puzzle: Exclusion NG 2) |  |  |  | 53.5 nM | 46 nM | 42.1 nM
15 | AGUAUAGUCCAUGGCCGCAAGCUUUUUACUUGUCUUACCACAUGAGGAUCACCCAUGUGACAUGGGCACCUUAUGAU [Sensor v3, turn-off variant 2 (MOD of Oranla v.4)] (puzzle: Sensor v3, turn-off variant 2) | 20.4 nM | 34.3 nM | 19.6 nM |  |  | 
16 | ACAUGAGGAUCACCCAUGUUUGGCUGGUUCUCUCCGGCUGUUGAGGAUAUAGUCCGGUAUCCGCGCUAGAAGGUGAGGGCUGGC [Aenatbe mod 7] (Eterna round: R96, puzzle: Exclusion NG 3) |  |  |  | 13.5 nM | 24.2 nM | 15.8 nM
17 | GUAUGUGGUAAGGAUAUGCAUAAAACCCGCUCCGCAGAAGGUACCACAUGAGGAUCACCCAUGUGAUACCAAUA [EX6 A.16] (Eterna round: R97, puzzle: Exclusion 6) |  |  |  | 16.1 nM | 14.3 nM | 
18 | CUGAGGUAGCGGUCCUAUGACAUGAGGAUCACCCAUGUACCUUGCUACAAGCUUUUUGCUCGUCUUAUGAUUCUCGG [JL Atriat mod 8] (Eterna round: R96, puzzle: Sensor v3, turn-off variant 1) |  |  |  | 81.3 nM | 82.7 nM | 154 nM
19 | UAACAAAACUGAGGAUAUCCAUAGCAAAACGUUUGAUCCUCUACAUGAGGAUCACCCAUGUAGCAGGAGAAGGCAGAAACAAAG [Orraenso] (Eterna round: R96, puzzle: Exclusion NG 2) |  |  |  | 28.3 nM | 21.6 nM | 90.1 nM
20 | CGCCUGUUAGGAUAUUAGUAGUAGUCAGAAUAGACUAUUACUGAGAAGGAACAUGAGGAUCACCCAUGUUGGCG [Eli x4 4.13] (Eterna round: R97, puzzle: Exclusion 4) |  |  |  | 19.9 nM | 15.5 nM | 
21 | CAGCUGAAAGUCAGGAUAUCUAGAGCCUCGGCUCUAGAGAAGGGACAUGAGGAUCACCCAUGUGGUCACAGCUG [BmEx4/5-A2] (Eterna round: R97, puzzle: Brourd's mod of Exclusion 4) |  |  |  | 93.5 nM | 619 nM | 
22 | UGCUGACGAGGAUAUACAUGAGGAUCACCCAUGUUGGUCAAGCGACUUCGGUCGCAAUGUAGAAGGCGUCAGCA [E3/8-A5] (Eterna round: R97, puzzle: Exclusion 3) |  |  |  | 290 nM | 513 nM | 
23 | AUUUUAACAUAGGAUAUCGAAUUUAUCAUUUAACGAGAAGGAUGAACAUGAGGAUCACCCAUGUGGUAUCAUGG [JL-ex6-3.01] (puzzle: Exclusion 6) | 160 nM | 265 nM | 105 nM |  |  | 
24 | AAUUCGGCAGGAUAUACAUGAGGAUCACCCAUGUAAAUUUUUCGUUUAACUUGAAUGUGUAGAAGGGCCAUUAA [Ex3 #63] (Eterna round: R97, puzzle: Exclusion 3) |  |  |  | 27.6 nM | 28.8 nM | 
25 | UGAGUAGAUCCGAAGGGAGACAUGAGGAUCACCCAUGUAUUAAGUUUUUAUGCUCGUCGCCUACGUAACCGUAGGAC [Eternabot (Original) Solution 2] (Eterna round: R97, puzzle: Sensor, turn-off variant 1) |  |  |  | 344 nM | 360 nM | 
26 | GACUAAAUGUGGUUUGGUUACAUGAGGAUCACCCAUGUUGGUCUAAGAACAUGUCUUUUGUACGCUUGUCUUAUAUA [JR_SV3TOV1_Sub067] (puzzle: Sensor v3, turn-off variant 1) | 630 nM | 324 nM | 896 nM |  |  | 
27 | CUUUCGUGAGGAUAUCAGUAGUAAAUAAAUAAAAUUACUACUGAGAAGGCACAUGAGGAUCACCCAUGUUCCUU [salish99_ex3_r3_095] (puzzle: Exclusion 4) |  | 12.9 nM |  |  |  | 
28 | UUUUGGCAUGUAGGAUAUGGGUCCGAUUAGGAUUUAGAAGGACAUGAGGAUCACCCAUGUGCAUUUAAUUGGUCUUUUUUUUUU [EXclNG1-LROPPY15] (Eterna round: R96, puzzle: Exclusion NG 1) |  |  |  |  |  | 80 nM
29 | AUCUACCGAGCAGGAUAUCCAGGCACAUGAGGAUCACCCAUGUCAGGGAGAGAAGUUGUUUGCGUGGAGAAGGGCUAUAAAUUA [Isdiatte] (Eterna round: R96, puzzle: Exclusion NG 2) |  |  |  | 314 nM | 162 nM | 163 nM
